From the supplement of paper PMC9233669
This sample holds only a part of the variants without activity.

Legend:
[1] = system: biotinyl-Phe-oxazolone; test: self-aminoacylation, catalytic enhancement (BFO) (fold over background); higher = more active; k-Seq, kA / k0A0; sequences stand for … in GGGAAUGGAUCCACAUCUACGAAUUC…UUCACUGCAGACUUGACGAAGCUG
Outline: (§1)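 The uncatalyzed rate is the low-activity peak of a bimodal Gaussian fit, and catalytic enhancement is median kA divided by it. The kA values came from pseudo-first-order fits, with 1000 bootstraps, of per-sequence fraction reacted measured by streptavidin capture, triplicate qPCR and Illumina sequencing. Mutagenized RNA pools with a 21-nt variable region (0.43 μM) were reacted with each biotinyl-aminoacyl-oxazolone at 2–1250 μM in 50 μL HEPES/NaCl/KCl/MgCl2/CaCl2 buffer with 5% acetonitrile, pH 6.9–7.0, for 90 minutes at room temperature.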

[2] = system: biotinyl-Ile-oxazolone; test: self-aminoacylation, catalytic enhancement (BIO) (fold over background); higher = more active; k-Seq, kA / k0A0; sequences stand for … in GGGAAUGGAUCCACAUCUACGAAUUC…UUCACUGCAGACUUGACGAAGCUG
Outline: as §1

[3] = system: biotinyl-Leu-oxazolone; test: self-aminoacylation, catalytic enhancement (BLO) (fold over background); higher = more active; k-Seq, kA / k0A0; sequences stand for … in GGGAAUGGAUCCACAUCUACGAAUUC…UUCACUGCAGACUUGACGAAGCUG
Outline: as §1

[4] = system: biotinyl-Trp-oxazolone; test: self-aminoacylation, catalytic enhancement (BWO) (fold over background); higher = more active; k-Seq, kA / k0A0; sequences stand for … in GGGAAUGGAUCCACAUCUACGAAUUC…UUCACUGCAGACUUGACGAAGCUG
Outline: as §1

[5] = system: biotinyl-Val-oxazolone; test: self-aminoacylation, catalytic enhancement (BVO) (fold over background); higher = more active; k-Seq, kA / k0A0; sequences stand for … in GGGAAUGGAUCCACAUCUACGAAUUC…UUCACUGCAGACUUGACGAAGCUG
Outline: as §1

[6] = system: biotinyl-Met-oxazolone; test: self-aminoacylation, catalytic enhancement (BMO) (fold over background); higher = more active; k-Seq, kA / k0A0; sequences stand for … in GGGAAUGGAUCCACAUCUACGAAUUC…UUCACUGCAGACUUGACGAAGCUG
Outline: as §1

Sequence | self-aminoacylation [1] | self-aminoacylation [2] | self-aminoacylation [3] | self-aminoacylation [4] | self-aminoacylation [5] | self-aminoacylation [6]
AUUCACCUAGGUCAGCGCGUG [Fam2.2 aminoacylation ribozyme variant] | 71.2 | 6.84 | 14.9 | 11 | 6.75 | 10.9
AUUCACCUAGGUCAGCGGGUA [Fam2.2 aminoacylation ribozyme variant] | 10.5 | 2.12 | 3.01 | 2.05 | 2.08 | 2.18
AUUCACCUAGGUCAUAGUGUG [Fam2.2 aminoacylation ribozyme variant] | 0.512 | 0.658 | 0.67 | 0.453 | 0.727 | 0.625
AUUCACCUAGGUCAUCCCGUG [Fam2.2 aminoacylation ribozyme variant] | 26.7 | 3.32 | 4.87 | 5.25 | 3.25 | 4.13
AUUCACCUAGGUCAUCCGAUG [Fam2.2 aminoacylation ribozyme variant] | 2.62 | 1.43 | 1.24 | 1.09 | 1.95 | 1.54
AUUCACCUAGGUCAUCCGCUG [Fam2.2 aminoacylation ribozyme variant] | 9.5 | 2.23 | 2.54 | 1.25 | 1.89 | 1.73
AUUCACCUAGGUCAUCGAGUG [Fam2.2 aminoacylation ribozyme variant] | 35.7 | 10.8 | 19.3 | 8.05 | 8.76 | 14.3
AUUCACCUAGGUCAUCGAUUG [Fam2.2 aminoacylation ribozyme variant] | 0.422 | 0.512 | 0.502 | 0.489 | 0.586 | 0.539
AUUCACCUAGGUCAUCGCGCG [Fam2.2 aminoacylation ribozyme variant] | 22.4 | 5.42 | 7.72 | 3.32 | 5.13 | 5.13
AUUCACCUAGGUCAUCGCGUA [Fam2.2 aminoacylation ribozyme variant] | 19.4 | 3.2 | 4.3 | 6.08 | 2.89 | 3.71
AUUCACCUAGGUCAUCGGAAG [Fam2.2 aminoacylation ribozyme variant] | 0.472 | 0.622 | 0.541 | 0.705 | 0.782 | 0.562
AUUCACCUAGGUCAUCGGAUG [Fam2.2 aminoacylation ribozyme variant] | 0.601 | 0.814 | 0.748 | 0.594 | 0.928 | 0.773
AUUCACCUAGGUCAUCGGCGG [Fam2.2 aminoacylation ribozyme variant] | 17.9 | 3.21 | 5.14 | 2.74 | 3.27 | 4.11
AUUCACCUAGGUCAUCGGCUG [Fam2.2 aminoacylation ribozyme variant] | 4.96 | 1.74 | 1.91 | 1.49 | 1.91 | 1.73
AUUCACCUAGGUCAUCGGGAG [Fam2.2 aminoacylation ribozyme variant] | 1.65 | 1.43 | 1.86 | 1.39 | 1.44 | 1.58
AUUCACCUAGGUCAUCGGGGA [Fam2.2 aminoacylation ribozyme variant] | 123 | 11.4 | 26 | 15.5 | 9.77 | 19.8
AUUCACCUAGGUCAUCGGGUA [Fam2.2 aminoacylation ribozyme variant] | 605 | 37.2 | 101 | 49.5 | 32 | 71.8
AUUCACCUAGGUCAUCGGGUG [Fam2.2 aminoacylation ribozyme variant] | 486 | 33.2 | 83.7 | 45.6 | 28.4 | 60.1
AUUCACCUAGGUCAUCGGGUU [Fam2.2 aminoacylation ribozyme variant] | 118 | 10.8 | 26.4 | 13.8 | 9.43 | 18.4
AUUCACCUAGGUCAUCGGUUC [Fam2.2 aminoacylation ribozyme variant] | 4.35 | 1.33 | 1.19 | 1.07 | 1.43 | 1.43
AUUCACCUAGGUCAUCUGGUC [Fam2.2 aminoacylation ribozyme variant] | 0.411 | 0.522 | 0.596 | 0.378 | 0.686 | 0.623
AUUCACCUAGGUCAUGCGGUG [Fam2.2 aminoacylation ribozyme variant] | 33.8 | 4.12 | 6.55 | 5.3 | 4.13 | 4.77
AUUCACCUAGGUCAUGGGGGG [Fam2.2 aminoacylation ribozyme variant] | 1.11 | 2.55 | 3.18 | 2.23 | 2 | 2.72
AUUCACCUAGGUCAUUCGGUG [Fam2.2 aminoacylation ribozyme variant] | 33.6 | 3.94 | 6.91 | 5.13 | 3.79 | 4.55
AUUCACCUAGGUCAUUGGGGG [Fam2.2 aminoacylation ribozyme variant] | 1.27 | 2.45 | 2.77 | 3.03 | 2.06 | 2.67
AUUCACCUAGGUCCGCGGGUG [Fam2.2 aminoacylation ribozyme variant] | 50.3 | 5.39 | 8.76 | 7.69 | 4.58 | 9.13

Sequence | self-aminoacylation [1] | self-aminoacylation [2] | self-aminoacylation [3] | self-aminoacylation [4] | self-aminoacylation [5] | self-aminoacylation [6]
AUUCACCUAGGUCCUCGCGUG [Fam2.2 aminoacylation ribozyme variant] | 51.4 | 4.84 | 10.4 | 6.43 | 4.96 | 7.68
AUUCACCUAGGUCCUCGGCUG [Fam2.2 aminoacylation ribozyme variant] | 8.15 | 2.51 | 2.6 | 2.67 | 2.25 | 2.07
AUUCACCUAGGUCGACGGGUG [Fam2.2 aminoacylation ribozyme variant] | 13.3 | 1.88 | 3.27 | 2.19 | 1.87 | 2.93
AUUCACCUAGGUCGGCGGGUG [Fam2.2 aminoacylation ribozyme variant] | 41.6 | 4.39 | 8.86 | 6.02 | 5.49 | 6.63
AUUCACCUAGGUCGUCGGAUG [Fam2.2 aminoacylation ribozyme variant] | 0.37 | 0.909 | 0.929 | 0.507 | 1.12 | 0.982
AUUCACCUAGGUCUCCGGGUG [Fam2.2 aminoacylation ribozyme variant] | 47.5 | 4.71 | 9.35 | 8.48 | 4.49 | 7.84
AUUCACCUAGGUCUUCGGGUG [Fam2.2 aminoacylation ribozyme variant] | 27.4 | 3.33 | 5.48 | 4.38 | 3.71 | 4.46
AUUCACCUAGGUCUUCGGUUG [Fam2.2 aminoacylation ribozyme variant] | 9.48 | 1.55 | 1.75 | 1.72 | 1.41 | 1.76
AUUCACCUAGGUCUUCUGGUG [Fam2.2 aminoacylation ribozyme variant] | 58.1 | 3.9 | 9.28 | 5.92 | 3.86 | 6.75
AUUCACCUAGGUGAUCCGGUG [Fam2.2 aminoacylation ribozyme variant] | 22.1 | 3.26 | 4.06 | 3.31 | 3.03 | 5.12
AUUCACCUAGGUGAUCUGGUG [Fam2.2 aminoacylation ribozyme variant] | 7.54 | 1.34 | 2.36 | 1.84 | 1.47 | 1.99
AUUCACCUAGGUUAUAGGGUG [Fam2.2 aminoacylation ribozyme variant] | 14.1 | 2.23 | 4 | 3.5 | 2.11 | 3.65
AUUCACCUAGGUUAUCCGGUG [Fam2.2 aminoacylation ribozyme variant] | 42.3 | 3.8 | 8.66 | 5.66 | 3.77 | 7.05
AUUCACCUAGGUUAUCGAGUG [Fam2.2 aminoacylation ribozyme variant] | 2.32 | 1.4 | 2.35 | 1.89 | 1.42 | 1.97
AUUCACCUAGGUUAUUGGGUG [Fam2.2 aminoacylation ribozyme variant] | 45 | 3.48 | 7.19 | 6.1 | 3.15 | 5.84
AUUCACCUAGGUUCUCGGGUG [Fam2.2 aminoacylation ribozyme variant] | 20.4 | 2.63 | 3.18 | 2.44 | 2.68 | 2.88
AUUCACCUAGUUCAGCGGGUG [Fam2.2 aminoacylation ribozyme variant] | 15.9 | 2.07 | 3.34 | 2.62 | 2.28 | 2.76
AUUCACCUAGUUCAUCGGCUG [Fam2.2 aminoacylation ribozyme variant] | 4.73 | 1.36 | 1.57 | 1.03 | 1.55 | 1.27
AUUCACCUAGUUCAUGGGGUG [Fam2.2 aminoacylation ribozyme variant] | 66 | 4.31 | 10.6 | 7.05 | 4.43 | 8.55
AUUCACCUAUGACAUCGGGUG [Fam2.2 aminoacylation ribozyme variant] | 22.3 | 2.25 | 3.63 | 3.44 | 1.73 | 3.24
AUUCACCUAUGUCAUCCGGUG [Fam2.2 aminoacylation ribozyme variant] | 37.6 | 3.78 | 7.19 | 5.69 | 3.51 | 5.26
AUUCACCUAUGUCAUCGCGUG [Fam2.2 aminoacylation ribozyme variant] | 65.3 | 4.86 | 10.4 | 7.34 | 4.89 | 8.26
AUUCACCUAUGUCAUCGGAUG [Fam2.2 aminoacylation ribozyme variant] | 0.61 | 0.826 | 0.606 | 0.502 | 0.758 | 0.581
AUUCACCUAUGUCAUCGGGCG [Fam2.2 aminoacylation ribozyme variant] | 10.4 | 2.22 | 2.87 | 2.2 | 2.13 | 2.79
AUUCACCUAUGUCAUCGGGUG [Fam2.2 aminoacylation ribozyme variant] | 36.7 | 3.61 | 7.41 | 5.45 | 3.48 | 5.41
